# Patent publication WO2014084859A1
# T1: peptide 44 (linear 15-mer of the ECD1-3 library) (human)
# T1 sequence (peptide): VQISRYKDYREPPWS
# T2: peptide 45 (linear 15-mer of the ECD1-3 library) (human)
# T2 sequence (peptide): SRYKDYREPPWSENK
# T3: peptide 46 (linear 15-mer of the ECD1-3 library) (human)
# T3 sequence (peptide): KDYREPPWSENKYDI
# B1: 12E11 (antibody, V domains shown)
# VH: QVQLKESGPGLVQPSQTLTLTCTVSGFSLSNYDMHWVRQSPGKGLDWMGVIWGNGKTQYNSGLTSRLSISRDTSKSQVFLKMNSLQTEDTAIYFCTRSGYYYDGSYYSLFDYWGQGVMVTVSS
# VL: DVVLTQTPPTLSATIGQSVSISCRSSQSLLHSNGNTYLNWLLQRPGQPPQLLIYLVSRLESGVPNRFSGSGSGTDFTLKISGVEAEDLGVYYCVQSTHAPAFGGGTKLELK
# B2: Peptide #2 (peptide)
# peptide: DHEECVKRKQRYEVDYNLE
# Legend:
# [1] = target: TMEM16A-GFP fusion protein on HEK293 stable cells (UniProt Q5XXA6); assay: flow cytometry on HEK293-TMEM16A cells
# UniProt Q5XXA6, sequence (Q5XXA6 whole entry, the tested form may be a part): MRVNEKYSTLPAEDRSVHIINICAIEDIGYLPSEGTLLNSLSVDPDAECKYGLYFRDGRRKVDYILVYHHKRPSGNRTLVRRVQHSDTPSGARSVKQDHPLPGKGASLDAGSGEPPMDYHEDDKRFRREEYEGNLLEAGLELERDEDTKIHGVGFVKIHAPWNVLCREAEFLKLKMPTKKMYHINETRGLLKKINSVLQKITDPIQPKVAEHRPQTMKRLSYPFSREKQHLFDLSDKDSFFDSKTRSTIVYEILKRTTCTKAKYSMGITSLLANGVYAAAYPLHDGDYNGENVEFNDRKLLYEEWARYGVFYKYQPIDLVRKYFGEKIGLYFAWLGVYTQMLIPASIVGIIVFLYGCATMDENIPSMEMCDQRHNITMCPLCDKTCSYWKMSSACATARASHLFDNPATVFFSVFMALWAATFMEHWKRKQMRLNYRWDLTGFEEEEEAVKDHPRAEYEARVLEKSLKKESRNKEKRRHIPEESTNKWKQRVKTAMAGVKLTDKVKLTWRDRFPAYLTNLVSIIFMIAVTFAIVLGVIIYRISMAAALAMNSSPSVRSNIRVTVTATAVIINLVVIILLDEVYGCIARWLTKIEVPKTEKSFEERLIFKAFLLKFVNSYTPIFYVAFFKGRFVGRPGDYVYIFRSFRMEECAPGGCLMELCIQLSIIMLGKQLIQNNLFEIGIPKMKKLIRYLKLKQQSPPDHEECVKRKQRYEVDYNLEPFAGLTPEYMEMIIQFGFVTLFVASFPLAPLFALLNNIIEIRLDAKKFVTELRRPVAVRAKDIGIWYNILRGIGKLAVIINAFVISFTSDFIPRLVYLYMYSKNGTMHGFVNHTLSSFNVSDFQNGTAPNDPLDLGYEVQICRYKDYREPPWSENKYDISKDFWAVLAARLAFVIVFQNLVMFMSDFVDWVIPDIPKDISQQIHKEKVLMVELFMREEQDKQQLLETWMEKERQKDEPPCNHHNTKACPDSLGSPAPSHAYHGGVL
# [2] = target: T1, peptide 44 (linear 15-mer of the ECD1-3 library) (human); assay: peptide microarray (RepliTope), linear 15-mer
# [3] = target: T2, peptide 45 (linear 15-mer of the ECD1-3 library) (human); assay: peptide microarray (RepliTope), linear 15-mer
# [4] = target: T3, peptide 46 (linear 15-mer of the ECD1-3 library) (human); assay: peptide microarray (RepliTope), linear 15-mer
# [5] = target: peptide 44 (cyclic, flanked by cysteines, second library) (human); assay: peptide microarray (RepliTope), cyclic peptide
# [6] = target: peptide 45 (cyclic, flanked by cysteines, second library) (human); assay: peptide microarray (RepliTope), cyclic peptide
# [7] = target: peptide 46 (cyclic, flanked by cysteines, second library) (human); assay: peptide microarray (RepliTope), cyclic peptide
# [8] = target: SP31 ab64085; assay: peptide blocking of SP31 ab64085, western blot of TMEM16A
molecule,measurement,setting,value
isotype control antibody (flow cytometry with 12E11),median fluorescence intensity,[1],93
B1,signal over background signal (after subtraction of the signals of the unrelated antibody),[2],3 times
same,signal over background signal (after subtraction of the signals of the unrelated antibody),[3],> 3 times
same,"signal (AU, arbitrary unit)",[4],15000 AU
same,signal over background signal (after subtraction of the signals of the unrelated antibody),[4],> 3 times
same,signal over background signal (after subtraction of the signals of the unrelated antibody),[5],> 3 times
same,signal over background signal (after subtraction of the signals of the unrelated antibody),[6],> 3 times
same,"signal (AU, arbitrary unit)",[7],15000 AU
same,signal over background signal (after subtraction of the signals of the unrelated antibody),[7],> 3 times
B2,peptide concentration at which pre-incubation blocked the western blot signal,[8],0.01 µg/mL
